assay: soluble on expression in E. coli; label from the status in PepcDB or PDB records

Sequence	soluble on expression in E. coli
KFWRRWAGQSQYKGRWREMVTRSALALKLLTSRKHGGIVAAATFGLPETEAGERNWDYRYTWIRDASFTVYAFMRLGYTDEANAFMGWVRGRLDDCCEQTEKLGILYALDGHAELPEEHLDHLTGYGGAQPVRIGNEAYKQVQLDIYGELMDAVYLANKYGDAISHDGWQHVVRQVDYVCEHWNDRDVGIWEMRGGDQHFLHSRLMCWVALDRALRLAFKRSLSGPFERWNKVREDIQNDIWDNFWNEELGHFVQYKGSRNLDASMLLMPLVRFVGANDPKWLATLDAIEAALVRDGMVFRYRNDDDHDDGLAGEEGAFVACSFWYVECLARAGRVEQAHLEFEQLLRYANPLGLYAEEFDGHARHLGNTPQALSHLALISAASFLDRKLSGEQALWQP	not soluble
KHLPEPFRIRVIEPVKRTTRAYREEAIIKSGMNPFLLDSEDVFIDLLTDSGTGAVTQSMQAAMMRGDEAFSGSRSYYALAESVKNIFGYQYTIPTHQGRGAEQIYIPVLIKKREQEKGLDRSKMVAFSNYFFDTTQGHSQINGCTVRNVYIKEAFDTGVRYDFKGNFDLEGLERGIEEVGPNNVPYIVATITSNSAGGQPVSLANLKAMYSIAKKYDIPVVMDSARFAENAYFIKQREAEYKDWTIEQITRETYKYADMLAMSAKKDAMVPMGGLLCMKDDSFFDVYTECRTLCVVQEGFPTYGGLEGGAMERLAVGLYDGMNLDWLAYRIAQVQYLVDGLEEIGVVCQQAGGHAAFVDAGKLLPHIPADQFPAQALACELYKVAGIRAVEIGSFLLGRDPKTGKQLPCPAELLRLTIPRATYTQTHMDFIIEAFKHVKENAANIKGLTFTYEPKVLRHFTAKLKEV	soluble
KIVCDFTEYNPLHKGHKYALEKGKEHGIFISVLPGPLERSGRGIPYFLNRYIRAEMAIRAGADIVVEGPPMGIMGSGQYMRCLIKMFYSLGAEIIPRGYIPEKTMEKVIDCINKGYHIQVKPYKIICIETGEILGEKLNIDNYVIASMSQMIYKLNREGLKFNPKFVFVKRLEGISGTKIREAIFSGKFEDIKNMLPKTTLSILKELYDNGKL	not soluble
KKMAFTLADRVTEEMLADKAALVVEVVEENYHDAPIVGIAVVNEHGRFFLRPETALADPQFVAWLGDETKKKSMFDSKRAAVALKWKGIELCGVSFDLLLAAYLLDPAQGVDDVAAAAKMKQYEAVRPDEAVYGKGAKRAVPDEPVLAEHLVRKAAAIWELERPFLDELRRNEQDRLLVELEQPLSSILAEMEFAGVKVDTKRLEQMGKELAEQLGTVEQRIYELAGQEFNINSPKQLGVILFEKLQLPVLKKTKTGYSTSADVLEKLAPYHEIVENILHYRQLGKLQSTYIEGLLKVVRPATKKVHTIFNQALTQTGRLSSTEPNLQNIPIRLEEGRKIRQAFVPSESDWLIFAADYSQIELRVLAHIAEDDNLMEAFRRDLDIHTKTAMDIFQVSEDEVTPNMRRQAKAVNYGIVYGISDYGLAQNLNISRKEAAEFIERYFESFPGVKRYMENIVQEAKQKGYVTTLLHRRRYLPDITSRNFNVRSFAERMAMNTPIQGSAADIIKKAMIDLNARLKEERLQAHLLLQVHDELILEAPKEEMERLCRLVPEVMEQAVTLRVPLKVDYHYGSTWYDAK	soluble
KKSPMLCGQYPVKSEGKELKIVVQPETQHRARYLTEGSRGSVKDRTQQGFPTVKLEGHNEPVVLQVFVGNDSGRVKPHGFYQACRVTGRNTTPCKEVDIEGTTVIEVGLDPSNNMTLAVDCVGILKLRNADVEARIGIAGSKKKSTRARLVFRVNIMRKDGSTLTLQTPSSPILCTQPAGVPEILKKSLHSCSVKGEEEVFLIGKNFLKGTKVIFQENVSDENSWKSEAEIDMELFHQNHLIVKVPPYHDQHITLPVSVGIYVVTNAGRSHDVQPFTYTPD	soluble
KKYVVFDMDGTLTTTDFEDVKQYAGEFFNSNYVAKMYPDVDNVVKYYASKGYGILYLTARPYWLSEESQTWLWKNGFPMGLLHTYTGGDVLLGEEAESFKAGYLNQLKSQGIEFDYGFGNEKTDVEAYSNIGIAKSNIFTIGKNRGIDGSVSIVSYTDYLKQLSGN	not soluble
KMETAFDIERTMGRRIEYVSNILAVSESELGSLYSYDIMIDLGEEGKAKTPEALRALDSIARHAEAYSLTKRTTSILNILKDLNQTLHDGDQAYYSIPGDAEEVAQQLLLYENAGGSEAESWIDYEYRRLRLKVEMTSYNSGEAEWELQDITDYARKLFPEAEITPVGSLPQFTTMMQYVVRGQ	not soluble
KMGPEYTKMQNLVKSEGLHTVCQEAGCPNIYECWEDREATFLIGGDQCTRRCDFCQIDTGKPEALDRDEPRRVGESVVTMDLNYATITGVARDDLEDGGAWLYAETVRQIHAQTAGREAGRTKVELLAPDFNAEPDQLAEVFSARPEVFAHNVETVPRIFKRIRPGFRYERSLKVITEARDYGLVTKSNLILGMGETREEVSEALRQLHDAGCELITITQYLRPSVRHHPVERWVKPHEFVELKEEAEEIGFSGVMSGPLVRSSYRAGRLYQMAMELRQSAAPQGGAQVASQAV	not soluble
KNTPVRMRGTLQDITERTKIEDSLLLSEERYRSFIQNFTGIAFQQDEDLNLEFVKGNVEEITGYSEEELMSKKRWRKIVEKQDLPLFLKKEREIKNARSPYSGKLSYRIRCKDGKIKWVHEVYQKIPGKN	not soluble
KNVLILGAGGQIARHVINQLADKQTIKQTLFARQPAKIHKPYPTNSKIIMGDVLNHAALKQAMQGQDVVYANLTGEDLDIQANSVIAAMKACDVKRLIFVLSLGIYNEVPGKFGEWNNAVIGEPLKPFRRAADAIEASGLEYTILRPAWLTDEDIIDYELTSRNEPFKGTIVSRKSVAALITDIINKPEKHIGENIGINQPGTDG	not soluble
KPLQRKLASGMVKKHSIIRALNKVYKRDVYFPGEEELNEVLSDEHKSGANTWEETTELNFEPDMTTVTTEDQSAKPPEQKTPSKDVLDFTQNFLQP	not soluble
KQATMKNAALKQLTKDADEILHLIKVQLDNLTLPSCPLYEEVLDTQMFGLQKEVDFAVKLGLVDREDGKQIMLRLEKELSKLHEAFTLV	not soluble
KQKKMQAMIVTSKPYCVIKRIHRDLHRGVTCINDAEGTYNHEKKAVLITILTREEFSDFKYLMLKADPKAFVSVAENVHIIGRFVDDD	not soluble
KREHAKQHGMIRTEITGAEIAEEMEKERRLFQLQMCEYLIKVNEIKTKKGVDLLQNLIKYYHAQCNFFQDGLKTADKLKQYIEKLAADLYNIKQTQDEEKKQLTALRDLIKSSLQLDQKESRRDSQSRQGGYSMHQLQGNKEYGSEKKGYLLKKSDGIRKVWQRRKCSVKNGILTISHATSNRQPAKLNLLTCQVKPNAEDKKSFDLISHNRTYHFQAEDEQDYVAWISVLTNSKEEALTMAFRGEQSAGENSLEDLTKAIIEDVQRLPGNDICCDCGSSEPTWLSTNLGILTCIECSGIHREMGVHISRIQSLELDKLGTSELLLAKNVGNNSFNDIMEANLPSPSPKPTPSSDMTVRKEYITAKYVDHRFSRKTCSTSSAKLNELLEAIKSRDLLALIQVYAEGVELMEPLLEPGQELGETALHLAVRTADQTSLHLVDFLVQNCGNLDKQTALGNTVLHYCSMYSKPECLKLLLRSKPTVDIVNQAGETALDIAKRLKATQCEDLLSQAKSGKFNPHVHVEYEWNLRQEEIDESDDDLDDKPSPIKKERSPRPQSFCHSSSISPQDKLALPGFSTPRDKQRLSYGAFTNQIFVSTSTDSPTSPTTEAPPLPPRNAGKGPTGPPSTLPLSTQTSSGSSTLSKKRPPPPPPGHKRTLSDPPSPLPHGPPNKGAVPWGNDGGPSSSSKTTNKFEGLSQQSSTSSAKTALGPRVLPKLPQKVALRKTDHLSLDKATIPPEIFQKSSQLAELPQKPPPGDLPPKPTELAPKPQIGDLPPKPGELPPKPQLGDLPPKPQLSDLPPKPQMKDLPPKPQLGDLLAKSQTGDVSPKAQQPSEVTLKSHPLDLSPNVQSRDAIQKQASEDSNDLTPTLPETPVPLPRKINTGKNKVRRVKTIYDCQADNDDELTFIEGEVIIVTGEEDQEWWIGHIEGQPERKGVFPVSFVHILSD	soluble
KRYIPSVNDFVIGVIIGTFSDSYKVSLQNFSSSVSLSYMAFPNASKKNRPTLQVGDLVYARVCTAEKELEAEIECFDSTTGRDAGFGILEDGMIIDVNLNFARQLLFNNDFPLLKVLAAHTKFEVAIGLNGKIWVKCEELSNTLACYRTIMECCQKNDTAAFKDIAKRQFKEILT	soluble
KSIELYENNIPNGKTDAILIKNQTLISALKNPKQTKSSQRSSQSTNTQNDAICYLAFNSKIRPDDKDIFLLDKFGEKFVTAIVNFEEKTEVKINTLQEKEAVVLPAPQKFKPTDPKSVALVQGPSLIGIHANANEDRSTIKFLNW	not soluble
KSIYIQSPYFIPDQAFLDSIKIAALGGVDVNIMIPNKPDHPFVFWATLKNAASLLDAGVKVFHYDNGFLHSKTLVIDDEIASVGTANMDHRSFTLNFEVNAFIYDQQIAKKLKQAFIDDLAVSSELTKARYAKR	not soluble
KSPVREPVDNLSPEERDARTVFCMQLAARIRPRDLEDFFSAVGKVRDVRIISDRNSRRSKGIAYVEFCEIQSVPLAIGLTGQRLLGVPIIVQASQAEKNRL	soluble
KTHEGHCYIIKAHTPIEEFNEQLNADFSDETYDTIGGIVLNKFGYLPQRGEVIIIDDFEFKVLNADSRRIKLLECLDKR	soluble
KVLGDGSYLFEGKTSLSDVRHYLDLPENAFGELGDEVDTLSGLFLEIKQELPHVGDTAVYEPFRFQVTQMDKRRIIEIKIFPFERTWEVE	not soluble
KVQKIIVSEAGASVYSASELAAKEFPNMDVSLRGAVSIARRLQDPLAELVKIDPKSIGVGQYQHDVSQSMLVKRLDAIVEDCVNAVGVDVNTASAALLTRVAGLSSTIAQNIVDFRDENGRFEARTTLKKVPRLGPKAFEQCAGFLRIMDGKNPLDASAVHPEAYPVVKAIAEKNRKDIKALIGDSTFLKGLHAVDYTDEHFG	not soluble
KVQTDPPSVPICDLYPNGVFPKGQECEYPPTQDGRTAAWRTTSEEKKALDQASEEIWNDFREAAEAHRQVRKYVMSWIKPGMTMIEICEKLEDCSRKLIKENGLNAGLAFPTGCSLNNCAAHYTPNAGDTTVLQYDDICKIDFGTHISGRIIDCAFTVTFNPKYDTLLKAVKDATNTGIKCAGIDVRLCDVGEAIQEVMESYEVEIDGKTYQVKPIRNLNGHSIGQYRIHAGKTVPIIKGGEATRMEEGEVYAIETFGSTGKGVVHDDMECSHYMKNFDVGHVPIRLPRTKHLLNVINENFGTLAFCRRWLDRLGESKYLMALKNLCDLGIVDPYPPLCDIKGSYTAQFEHTILLRPTCKEVVSRGDDY	soluble
KVTNRHFQDVPALEVVTTTHLDQPLPLVIFYHGWQSNKELVLTQARKLARKNLRVVLPDAMNHGERHQIVSQIPSFTFWNSIQGNLGEFELIVNYYRERKLILNEQIGVGGYSMGGMTTGALLTHHPEIKAATIIMGTPNLNAYAQLVRKHAQAHAYYIPSDLALLTSWLDHYDLNLQPETINHRPLLFWHGTEDERIPYSQSRNFFDRVHTAPYAEQVAFITGYQAKHLVKVPLMNKVANFFDYYLN	not soluble
LDLNNPQYNDVYEINYDFIYSLRNIMDYVVRGDEWALDDYYEALDIRNDDLRWVLSDVQYRRFLGAEYFYRPIYVTGGRWNFRIYINYPNRSLFYFGVPYHYRTYCGAHYRPHIHHVSYYRGRYNNLVHYPTPYRVRDQRVFHSYRRSDFGSVRFRPNTSVRPHNAPTRPGTSGRPGTTSR	not soluble
